Experiment: soluble on expression in E. coli; label from the status in PepcDB or PDB records

Row | Sequence | soluble on expression in E. coli
1 | MAHHHHHHMTRKVAGDMWDSRVEASLPALNYLRTAQQLQKKADELSRAQERVHRLQEDNSALLLENELLKRERDALLCKVQFLELNEHGHCTTNDIVGPWGNVRSVPAGGLGSTTGGDLSPVFKDNVNKASETRVNISEQARTHTNSEQQDLHNPKEETILCPLSASSETLINTNRPDANIETFHRSTESHVEYCANGECRSPISMTRTTQTVAYERRVPSVERGTMTTMNIYICSYQSLPSKAGAFFEVPLSNVETAIHHDPESLTSITIPRS | not soluble
2 | MSPNPVEKAAILRIIDSIDARDDDYCAHEFNVYRWLVAYGNEEEEAAKALKRHLNIRKTIDLNSYSSKTELEEDELNKYVPIDVIGQNHQDDNKVLMFERTGKIDISGLVDNVLMHKFMQIKLKMMEGVHQKVVAAERKTGRQSGGLFIMDLDGISFSPKLISVLTGPYRIMWGTLFDHYPQLLQKIIIVNAPSFVNVLHQACSPFLPEDYKEKIVITSEPAIGAIQKHADKCFLPSDLGGDLEKTTSLPMAPFPKMNKKYEKEKEKVSLLAISVPAGKYTVQKFSWKKGDEVEFFLHNESSFHYFMFHSEEDTKDMDLWREMTVGCERPALSQIDSWKYTVPIDGFYFIRYGNHNSWYFSTTVNVNHFISNENGERIELVPIETFNI | not soluble
3 | MYKQLEKLITLTNNDLNLVNRRFGQRTDITSEQLELLRILFNYDRLSQYDLTMKISREQSIVSRWIKKLVLKGYITSQQSSEDLRCKELILTDQARTLISQINNARCELIEARCQCLSEVELDNLNQLLDKLNQRRISL | not soluble
4 | MSLRLDKFIAENVGLTRSQATKAIRQSAVKINGEIVKSGSVQISQEDEIYFEDELLTWIEEGQYFMLNKPQGCVCSNDDGDYPTIYQFFDYPLAGKLHSAGRLDVDTTGLVLLTDDGQWSHRITSPKHHCEKTYLVTLADPVEENYSAACAEGILLRGEKEPTKPAKLEILDDYNVNLTISEGRYHQVKRMFAALGNKVVGLHRWKIGDVVLDESLEEGEYRPLTQSEIEKLVEGGSHHHHHH | soluble
5 | MGHHHHHHSHMANSAGSMANSAGSSWHNDHNFSVSKQPNLVVHNHTVTVPEGETVKGDVTVKNGKLIIKGKIDGDVTVVNGEKYMASAGQVTGQIEEINQLFDWTWYKMKSAGKSVLDAFNPNGEE | not soluble
6 | MNSSLSLLHPYPFEKLNVLFKDVTPADLPLIPLSIGEPKHPAPEFVKQAIIDNFNHLSTYPNSKGLPELRESIARWLTQRFQLNHISSEDHILPVTGTREGIFSFVQALINRDEAPYVVMPNPFYQIYEGATLLAGAKPYFINCTAENDYLGDFDAVPSEVWEKTALLFVCTPGNPTGAVLSKEKLKKLIQLSDQYNFVIASDECYSELWFDQAPVGLLEVCAEIGRDNYKNCIVFHSLSKRSNLPGMRSGFVAGDAELLKPYLKFRTYHGAAMPVQHQLASIAAWNDEAHVEENRQQYRAKFNLFQSELGQLIPLKKPDAGFYYWLHVDNDEAFAKMLMEKAHIKVLPGRYLSRETEQGNPGENHVRMALVADLAQCEQVVQRLKKVL | not soluble
7 | MSLAALDPITPAGGGTWRFPANEPLRLDSGGVIEGLEIAYQTYGQLNADKSNAVLICHALTGDQHVASPHPTTGKPGWWQRLVGPGKPLDPARHFIICSNVIGGCMGSTGPASINPATGKTYGLSFPVITIADMVRAQAMLVSALGVETLFAVVGGSMGGMQVQQWAVDYPERMFSAVVLASASRHSAQNIAFHEVGRQAIMADPDWRGGAYAEHGVRPEKGLAVARMAAHITYLSEPALQRKFGRELQRDGLSWGFDADFQVESYLRHQGSSFVDRFDANSYLYITRAMDYFDIAASHGGVLAKAFTRARNVRFCVLSFSSDWLYPTAENRHLVRALTAAGARAAFAEIESDKGHDAFLLDEPVMDAALEGFLASAERDRGLVEGHHHHHH | soluble
8 | GPGSMPTRPLLVKYETPVLLSEVKHKKALKEKKRVAVGAQSGPQAEDVLYSIIPPREFEENGQQWVQYVSSIPATRMDVINLQERLDSLLLERNARETGICPVREELYSQVFDELIRQVTVNCAERGLLLLRVRDELRMTLDAYRSLYESSAAYGMRKALQAEQSKIEMESKIQALEREKEELKQQVEELEYRCESIIQQEKEKFAEAERKHNEEVAFFRRTYQTLTTNLQTLCNATKA | soluble
9 | MLLAGLLASVEHGLNRVLRLDSTALPRLAALEGKVIEIDCRQPALQVFILPDEEGLMLAAHWQGEVDCRLRAPAGSLAQLALVKDKTAVLHSPQVELHGDSAVLLDLFGVLQDLELDWEHELQRWLGPVATAMLAGHIRLRARWTRQGLARFSQNLSEYLAEESRTLVGKREAEAAFSELDALKLDTERLEARLKRLSRSLDTSDNA | not soluble
10 | MSLKLTIGVSYPTANSPFWNAYTRFIDEGSHQLGVYINAVSAEEDEQKQLSDVETLINQGIDGLIVTPQSTSIAPTLLRIATQANIPVVVVDRYPGYAPGQNKNADYVAFLGPNNEKAGSGIAEALMAGGGSKFLALGGMPGNSVAQGRKAGLESALTAVGHRLVQFQYAGDSEDKGLAAAENMLQAHPAGDANAIWCFNDKLCQGAIKAVYNANREKEFIFGGMDLTPQAIAAIENGLYTVSLGAHWLEGGFGLAILYRKIHGQDPAERMVKLDLLKVDKSNVAKFKARYEGHHHHHH | not soluble
11 | GPLGSHMASEFINQGDVTEGNNNQEEVYCFCRNVSYGPMVACDNPACPFEWFHYGCVGLKQAPKGKWYCSKDCKEIANQRSKSKRQKRRK | soluble
12 | MSYYHHHHHHDYDIPTTENLYFQGAMDPEFRVINLAYDDNGTGDPVVFIAGRGGAGRTWHPHQVPAFLAAGYRCITFDNRGIGATENAEGFTTQTMVADTAALIETLDIAPARVVGVSMGAFIAQELMVVAPELVSSAVLMATRGRLDRARQFFNKAEAELYDSGVQLPPTYDARARLLENFSRKTLNDDVAVGDWIAMFSMWPIKSTPGLRCQLDCAPQTNRLPAYRNIAAPVLVIGFADDVVTPPYLGREVADALPNGRYLQIPDAGHLGFFERPEAVNTAMLKFFASVKA | soluble
13 | MKLTLAIPSLNLDEDEIRIPLCLHAFNKILQYGSLHRQSCTASAFYARYLWCGRLVERAAQSLNMPSEAVALATPVWQKMGMHQANVLTAEYLNVGTDEAERICRDLSAFYGDIPWRFVPVLPELWLVSLPCAYRWGAKPVLDLGGLLGADDQPDGEDALEWLRVQTEIQMWLAAHPVNHNRKKRGLPELNGLWLWDGTNGGAQGGTLFADTVWSRFHSDRRALPDNFRAYEETAAHLPDTHHILFMDDLRLTALTGDRERYAAILQQWEERWFAPIYEAVRTGKIKRLDITTDGQHGGTLTFKPADRWKFWRGAKTFDGIW | not soluble
14 | MGSDKIHHHHHHMKIDVEAFRVLSILVEEGSFSKAAERLHKAQSAVSYQVKKLEQHLGVKLFCRDQYRAELTPEGKVILAEGKRLLQYLGNIEHLASRFSEGWEPKLELVVDGSLPMEPIMRALKRVSEHKIPTKIQLNMEFLGGVQHRFERDNADLMLVKDYRTGPNYRPQPLPDINSILVVSRSHPLAKAKELSLFELLQHVELTIEDSSPGKIHSDELQFGGDKVFYLSGFIMKKNALLMGLGFGWMPDFLIQEELASGELQELDFLGGSRYSFTPQLVSTMERPLGRAGRLFTSLILEEFNLYQAQASR | not soluble
15 | MFPSVDPEKCEDKGECVSTCPYEVFELGIRTAEEISELSFIGRIEARAHGNRMARTSHIDMCHVCGDCVIVCSEKAIRLLPR | not soluble
16 | MSKVRVAGFSVSVDGFGAGPEQSLNDPLGKRGPEMFQWFFHTRTFRAMMGKDDGSTGIDEDYASRAMANFGAFILGRNMFGPIRGEWPDDAWKGWWGPNPPYHAPTYVLTHYPREPLVMEGGTTFHFVTGGIHQALDQAKAAAGDKDVKIGGGVATVRQYLQAGLIDELHFAVSPVVLGKGEAMFAGIDLPALDFRVTEHAASEKATHIVLAKLEHHHHHH | not soluble
17 | MMLSSNSFSLNLSNEDYIWPLEEDQEETTDSSGPMMLSPPLPEGACFNFEDRNTVYVHSRRPEDTPKSFELYSIPEDLALDSPFPSCEQTTFFTTKPDKSFLLDIKNSSPLNIGRMQNSRS | soluble

Reference: the DeepSol protein solubility set
